Key:
[1] = biological target: ArsR As(III)-responsive transcriptional repressor from Corynebacterium glutamicum (Corynebacterium glutamicum); assay: crystal structure
crystal structure = biological target: the molecule itself; assay: crystal structure

Row | Molecule | stoichiometry N [1] | stoichiometry N (crystal structure)
1 | ArsR As(III)-responsive transcriptional repressor from Corynebacterium glutamicum (natural protein) | 2 | 
2 | ArsR As(III)-responsive transcriptional repressor from Acidithiobacillus ferrooxidans (natural protein) MEPLQDPAQIVARLEALASPVRLEIFRLLVEQEPTGLVSGDIAEHLGQPHNGISFHLKNLQHAGLVTVQREGRYQRYRAAMPVVRALVAYLTENCCHGTRDCALSGETRSPSVQEGNQ |  | 2
